Test results as given in the supplement of paper PMC9170038.

Test system: K4 kissing-loop RNA reporter
Assay: apparent KD of K4 kissing-loop reporter; higher = weaker reporter binding
Conditions: Eterna round: R107; input ligand: theophylline 20 uM
Procedure: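 RNA-MaP round R107: designed RNA switches with theophylline, tryptophan, arginine or FMN aptamers are transcribed on-chip within common flanks. They are titrated with a labelled K4 kissing-loop RNA reporter in RNA-MaP buffer (100 mM Tris pH 7.5, 80 mM KCl, 4 mM MgCl2), without ligand or with the indicated ligand. Median apparent KD per design.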
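Note: bound reporter read as fluorescence of individual clusters on recovered sequencing chips by microscopy, with normalized cluster intensities fitted with a binding model.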

| Sequence | apparent KD of K4 kissing-loop reporter [µM] |
| --- | --- |
| GCCGUACGCAUGGAUACCAGCUACUAGAGUGAUGUUCUAUGGCCCUGCCAAUGGAGCUGUAGCCCUUGGCAGCCAUGCGUACGGC | 0.122 |
| AUGUAUGAAUUAGGAUAUCGUGAGCCUUGCAUAUAUAUGAUAAAUGGAUAUGUCGUAGUGAUGUUACGAGAAGGAGUGUGGAGUA [KL-XFMN-B4] | 0.0712 |
| ACGAAGGAUGGAAGGAGCGCUCGUCAGUCCUGCGAGUGAUGUUCGUGGGUAAAUAUUCGCGAGCAGGUAGGUCGCCAUCUUGAGC [Soregeor] | 0.134 |
| AUACGUUUAAGUGAUACCAGACAUGUGAGUGAUGUUUACAAAUAAAUUAAAUUUUUAGCUGUCCCUUGGCAGCACAGUUUAUUUA [JR_ExcTheophyB_Sub002] | 0.61 |
| UCCUGCAAUCUGCCACGAAAGUGGAUUGAUACCAGAGUCGAAAGACUCCCUUGGCAGCGAGUGAUGUUCGACGCAGGUAAAUAAA [MatMod 5 - Jieux - Exclusion - Theophylline A] | 0.234 |
| CAUAGUCACUGUGAUACCAGCCCGACUCUUGGCGUCUGCGGUCAAAGCCCAGUGAUGUUGGGCCCUUGGCAGCAUGGCGGCAACA [Xelexebi] | 0.112 |
| GUGCGCGCGGCGGCCGCCACUCGCAUGAGAGUGAUGUUCUCGGGACUGACGCAAGUCAGUCAUGUGAGGACCGGGCCGGGCUGCG [#2 Same State - Tryptophan B Attempt #12 (HarryS)] | 0.769 |
| AGGGACGAUAGCGAUACCAGAGGUCGCAAAUUCGCGCCGUUUUUUAGGAAGUGAUGUUUUCUCCCUUGGCAGCGCCCUUAGAGUU [theeternabot_exclusion_KL_Theo_B_47] | 0.795 |
| CGCGCGCGCGCGCGCGCGCGCGAAAAUGAUACCAGUAUAUAAGAAUACCCUUGGCAGCAUAAGAAAGAUAUAGUGAUGUUGUAUA [SSTheophA.A] | 0.316 |
| CGGAGUGAUGUUCCGUUAAUUCCUUAGUUACGAGGACCGGUACGGCCGCCACUCGAUUUUAGUUUUAUUUAUUGUUUGGAAAUUU [JR_SSTryptoA_Sub008] | 0.327 |
| UAGUCCUAGUGAUGGUCAUCACGUGGUGGGCGAGGACCGGUACGGCCGCCACUCGACUUUGCAGUGAUGUUGCAAACCGGACAAU [Exclusion - Tryptophan A (Freestyle 19)] | 0.354 |

Same assay, conditions: Eterna round: R107; input ligand: tryptophan 2.4 mM

| Sequence | apparent KD of K4 kissing-loop reporter [µM] |
| --- | --- |
| AUGGUGGAUCAGUGAUGUUGGUGGAGUAGGUAGGAUAUGAGUGAUGUUAGAAGGAUCGGAGUGAUGUUCCAGGUGGUUGUGUUGU [KL-SSFMN-A3] | 0.389 |
| GCCGUAGAUUGAAGGAGCGCCUUCUUACCAAGAGUGAUGUUCUUAGGUACCAUGUUCAGUAGGCAGGUAGGUCGCAAUCUACGGC | 0.489 |
| AAGAAUAAUCUUGCAGUGAUGUUGCAAGAUACCAGCAUCGAAAGAUGCCCUUGGCAGCUUGAAACUGCAAGAAUCAAGCUGAAUA [Design1] | 0.137 |
| GGUAGCAUGGCGGCCGCCACUAAGAGAGUGAUGUUCUCUUAGUUUUUUGAUGUGUUAUCAAUUCUUAGGACCGGGCCAUGCUACC | 0.109 |
| ACUGAAAGAUCUGAUACCAGACUUUUUGUAUUUAUUAAAACUAGUGAUGUUAGUUUAUCAGUCCCUUGGCAGCAGUUACUACAGA [JR_Nu_ExcTheophyB_Sub024] | 0.0954 |
| ACGACGGCAGCUCAGUGAUGUUGGGCAUUACGAGGACCGGUACGGCCGCCACUCGCUGCUUUGAUCCGUGGAUGAACCUCAGCAU [theeternabot_sameState_KL_Trp_A_13] | 0.402 |
| GGGAGCAAAGCUCCCGGAUGCUAUAGUCAGGAGGAUAUCUGGAAACAGAGAAGGCCUAAGCCAGUGAUGUUGGCUAUAAGCAUCC | 0.589 |
| GUAGACAGACUGCAAGCCUAGUCUACAGACUAGGAUAUCAGGAAACUGAGAAGGAGUCUACUUGCAGUGAUGUUGCAAGAAUAAU [[F]''-[K]'-[F]'-[F1]-[F2]-[K1]-[K2]_Design4] | 0.119 |
| UCUAACGUUGAGGCGGCAGCGGGCCCAUCUAAGGAUAUCGGUUUACCGAGAAGGUAGUUGGACGAGAGUGAUGUUCUAUUGAGAG [theeternabot_sameState_KL_FMN_A_18] | 0.159 |
| CAUAGGAAACUAUGUUUCUCUCUUACUGAAGGAGCGCGUGAAAACGCAGGUAGGUCGCAGAUUUUGAGAGUGAUGUUCUCAAUAA [Ex Arginine A K4 18] | 0.0917 |
| UGACAUUGCUCAGAUACCAGACUUGAGGAACACCCAAGUGCCAAACGUACAAUAAUAAAAGUCCCUUGGCAGCUGAGCAAUGUCU [TheoBX 14] | 0.0598 |
| UCUGGAGGAUAUGAUACCAGCAGUGAGAGAGAGGAAGUAUAGUGAUGUUAUAUGAGAGAAUGCCCUUGGCAGCGUGUGUAGUGGG [SSTheophylB.L] | 0.0866 |
| ACACGGAGAGGCAUAACGUGCAUCUUCAGCGAGGAUAUCCAUUACAGGAGAAGGCGCUCCGGAGUGAUGUUCCGGCAAAAGAUAC [Quatatte] | 0.0915 |
| GCGCGCGUUUUAGAUACCAGCCAGUGAUGUUGGCGAGGAUUCUGGAGCGUAGUGUCAAAUGGCCCUUGGCAGCUAACACGCGGCU [Zabea] | 0.123 |
| GCAACAUUGGUAGGAUAUCAUUCUGAGUGAUGUUCAGGGUUCAGCUAACGAAAGUUAGUUGUACCAUGAGAAGGACUAAUGUUGC [Omei KL FMN B SS A v3] | 0.915 |
| AAAAUAAGCCAGUGAUGUUGGUAUACAGAUACCAGCGACGAAAGUCGCCCUUGGCAGCUGUGGACGUACAAAAUAAGUACGUCCU | 0.364 |
| UGAUAGCCAGUGAUGUUGGCAUAUACUGAAGGAGCGCGUGAAAACGCAGGUAGGUCGCAGUUCCUUGCCAAUUGAUCGAAAGAUC [#08 K4 Arginine A Exclusion] | 0.162 |
| GCCGUAGAUGGAAGGAGCGUGAAUGGCCUCUAUCCAAAGUGAUGUUUUGUUGAAGACUGUUCACAGGUAGGUCGCCAUCUACGGC | 0.14 |
| UUCGGAUAAGUCCUUCCGAAGAAGCCGGAAGGAGCGACUCAAUAGUCAGGUAGGUCGCCGGCAAGCGUAGUGAUGUUAUGCUCAC [Arg A SS t6] | 0.74 |
| UUGUUUGGUUGAGAGGUUGGGCGAGAUGAUACCAGUAUAGAAGAGUACCCUUGGCAGCAUAGGAGAGAUAUAGUGAUGUUGUAUG [SSTheophA.T] | 0.333 |
| UUACUGAGUGAUGUUUGGAAAUAUCCUAGGCAGGAUAUGCGGAAACGCAGAAGGGCCACCUUCUAGUGAAGGAAACUUCGCUAUU [Ex FMN A 4] | 0.379 |
| UUUUUCGCGUUUGAUACCAGCAGAGUUGUUCGUGUCUGGAGCGUGAGUGAUGUUCAUGUCUGCCCUUGGCAGCAAACGGGAGAAG [KL-XTheo-B14] | 0.134 |

| Sequence | apparent KD of K4 kissing-loop reporter [µM] |
| --- | --- |
| GAGAUAGAGGCGGCCGCCACUAGUGAUGUUAGUGAUGUUAGAAAGAGAAUAGAACAGGGAUUAGAUAGGACCGGGCCAGAUGGAG [vvhmullin] | 0.0601 |
| AAAUAGAUCAGUCACCCAGUGAUGUUGGAAGGAGCGUGCGAAAGCACAGGUAGGUCGCCAGAAUAAAAUUGGCUGAUCAAAAUAA | 0.149 |
| AUUUUCAAUUUAUUAUAUAACUUUUCAGAAGGAGCGUGGAAGUUCACAGGUAGGUCGCUGAAUAUAGGACUAGUGAUGUUAGUUA [JR_Nu_SSArginiA_Sub023] | 0.258 |
| AGGCCGAGCCAAGGAUAUUGUCAGAGUGAUGUUCGCCAAUACUCCAGCCGCGCCUCAUCAGCUGAGCAAGAAGGUGGUCCUCUCA [theeternabot_exclusion_KL_FMN_B_47] | 0.209 |
| GAGGUACAGCUGGCCGUCGAAUUGUCCGAUACCAGACACUCUCUAGUCCCUUGGCAGCGGUGGUAAGUGAUGUUUACAGGCGCCG [theeternabot_exclusion_KL_Theo_A_3] | 0.126 |
| CUUGGAAAGACGGCCGCCACUGGCCAGUGAUGUUGGCCCACCAGGUAAGCCAAGAAGCUUGACGUCAGGACCGGGUCCUAGGAAU [Exclusion TRyptophan B GF 23] | 0.359 |
| GCCGUACGCAUGGAUACCAGUCAAGAUCAGUGAUGUUGAUCUUUUAUAGAGCCUUCAUUAGACCCUUGGCAGCCAUGCGUACGGC | 0.25 |
| CGGCGUGCCUUAUCCUCAUCUCUGACUCAACGAGGACCGGUACGGCCGCCACUCGGAAGAGGCAGUGAUGUUGCCUACGCCGGUG [Oronat] | 0.0814 |
| UGAUACCAGACGGCCGCCACUCCCGUAAGUCAAAGACUUACGAAGAGAGUUGUCCAGUGAUGUUGGAGGACCGGGUCUGGUAUCU [FiskerMod 13 - Jieux - Exclusion - Tryptophan B] | 0.26 |
| GCGCGUCAUGUCAGCGGUGACACUGUCGAUACCAGCGCCGCAAGGCGCCCUUGGCAGCGACGCGCUGGAGUGAUGUUCCAGCGUG [#2 Exclusion - Theophylline A Attempt #14 (HarryS)] | 0.169 |
| AGCGAGUGAUGUUCGCUGAUCAUGUGAAGUUAGGAUAUAUACUUGCAUAGAAGGAACUAUUACAUGACAUUAGAGGCAGUAGUUC [FMN A SS t7b] | 0.128 |
| GCCGUACGCAUGGAUACCAGCUACUAGAGUGAUGUUCUAUGGCCCUGCCAAUGGAGCUGUAGCCCUUGGCAGCCAUGCGUACGGC | 0.126 |
| AUGUAUGAAUUAGGAUAUCGUGAGCCUUGCAUAUAUAUGAUAAAUGGAUAUGUCGUAGUGAUGUUACGAGAAGGAGUGUGGAGUA [KL-XFMN-B4] | 0.0391 |
| ACGAAGGAUGGAAGGAGCGCUCGUCAGUCCUGCGAGUGAUGUUCGUGGGUAAAUAUUCGCGAGCAGGUAGGUCGCCAUCUUGAGC [Soregeor] | 0.129 |
| AUACGUUUAAGUGAUACCAGACAUGUGAGUGAUGUUUACAAAUAAAUUAAAUUUUUAGCUGUCCCUUGGCAGCACAGUUUAUUUA [JR_ExcTheophyB_Sub002] | 0.43 |
| UCCUGCAAUCUGCCACGAAAGUGGAUUGAUACCAGAGUCGAAAGACUCCCUUGGCAGCGAGUGAUGUUCGACGCAGGUAAAUAAA [MatMod 5 - Jieux - Exclusion - Theophylline A] | 0.135 |
| CAUAGUCACUGUGAUACCAGCCCGACUCUUGGCGUCUGCGGUCAAAGCCCAGUGAUGUUGGGCCCUUGGCAGCAUGGCGGCAACA [Xelexebi] | 0.12 |
| GUGCGCGCGGCGGCCGCCACUCGCAUGAGAGUGAUGUUCUCGGGACUGACGCAAGUCAGUCAUGUGAGGACCGGGCCGGGCUGCG [#2 Same State - Tryptophan B Attempt #12 (HarryS)] | 0.423 |
| AGGGACGAUAGCGAUACCAGAGGUCGCAAAUUCGCGCCGUUUUUUAGGAAGUGAUGUUUUCUCCCUUGGCAGCGCCCUUAGAGUU [theeternabot_exclusion_KL_Theo_B_47] | 0.688 |
| CGCGCGCGCGCGCGCGCGCGCGAAAAUGAUACCAGUAUAUAAGAAUACCCUUGGCAGCAUAAGAAAGAUAUAGUGAUGUUGUAUA [SSTheophA.A] | 0.161 |
| CGGAGUGAUGUUCCGUUAAUUCCUUAGUUACGAGGACCGGUACGGCCGCCACUCGAUUUUAGUUUUAUUUAUUGUUUGGAAAUUU [JR_SSTryptoA_Sub008] | 0.113 |
| UAGUCCUAGUGAUGGUCAUCACGUGGUGGGCGAGGACCGGUACGGCCGCCACUCGACUUUGCAGUGAUGUUGCAAACCGGACAAU [Exclusion - Tryptophan A (Freestyle 19)] | 0.298 |
